Assays:
[1] = target: MICB*005 on HCC1534 cells (human); assay: cell-based or functional assay
[2] = target: MICA*004 on HCC1534 cells (human, UniProt Q29983 24-383); assay: cell-based or functional assay
[3] = target: T1, MICA*008 on MEL-JUSO cells (human, UniProt Q29983 24-317); assay: cell-based or functional assay
T1 chain: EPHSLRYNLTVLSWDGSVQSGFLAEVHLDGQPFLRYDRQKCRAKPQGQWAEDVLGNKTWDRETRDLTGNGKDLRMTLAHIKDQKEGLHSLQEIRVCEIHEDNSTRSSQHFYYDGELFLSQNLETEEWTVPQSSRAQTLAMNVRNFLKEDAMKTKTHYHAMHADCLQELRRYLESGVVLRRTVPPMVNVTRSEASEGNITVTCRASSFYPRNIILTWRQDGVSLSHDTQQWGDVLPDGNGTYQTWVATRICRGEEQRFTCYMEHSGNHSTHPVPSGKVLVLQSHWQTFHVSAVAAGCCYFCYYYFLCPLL

huMICA*008 alpha 3-his = target: T2, huMICA*008 alpha 3-his (human); assay: SPR, Biacore 8K, antibody on Protein A chip
T2 construct: whole construct entry: GS, alpha 3 domain (Thr204-Ser297), GNS, His8; also the construct of the FPOP experiment; also called MICA008.His; MICA*008 alpha3 construct
T2 chain: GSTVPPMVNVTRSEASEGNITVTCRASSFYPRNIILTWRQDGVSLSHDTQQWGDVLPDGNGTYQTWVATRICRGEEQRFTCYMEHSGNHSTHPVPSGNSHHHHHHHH

huMICB*005 alpha 3-his = target: T3, huMICB*005 alpha 3-his (human); assay: SPR, Biacore 8K, antibody on Protein A chip
T3 construct: whole construct entry: GS, alpha 3 domain, GNS, His8; also called MICB005.His; MICB*005 alpha3 construct
T3 chain: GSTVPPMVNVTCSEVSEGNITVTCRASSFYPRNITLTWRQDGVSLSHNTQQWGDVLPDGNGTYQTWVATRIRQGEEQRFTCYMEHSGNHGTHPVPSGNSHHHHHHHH

huMICA*004 alpha 3-his = target: T4, huMICA*004 alpha 3-his (human); assay: SPR, Biacore 8K, antibody on Protein A chip
T4 construct: whole construct entry: GS, alpha 3 domain, GNS, His8; also called MICA004.His; MICA*004 alpha3 construct
T4 chain: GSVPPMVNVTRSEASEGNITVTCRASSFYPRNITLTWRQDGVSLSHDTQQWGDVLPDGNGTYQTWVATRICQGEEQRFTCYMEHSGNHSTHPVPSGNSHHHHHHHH

huMICA*002 alpha 3-his = target: T5, huMICA*002 alpha 3-his (human); assay: SPR, Biacore 8K, antibody on Protein A chip
T5 construct: whole construct entry: GS, alpha 3 domain, GNS, His8; also called MICA002.His; MICA*002 alpha3 construct
T5 chain: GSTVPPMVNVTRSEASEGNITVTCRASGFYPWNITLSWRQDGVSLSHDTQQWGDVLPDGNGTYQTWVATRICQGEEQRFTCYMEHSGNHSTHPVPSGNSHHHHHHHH

[4] = target: T6, MICB005.His (human MICB*005 alpha 3 domain, His tagged) (human); assay: SPR, antibody captured;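 also: SPR with antibody held by surface-bound anti-Fc while His-tagged alpha three domains flow over, Kd derived by fitting a one-to-one binding model to sensograms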
T6 construct: also called huMICB*005 alpha 3-his
T6 chain: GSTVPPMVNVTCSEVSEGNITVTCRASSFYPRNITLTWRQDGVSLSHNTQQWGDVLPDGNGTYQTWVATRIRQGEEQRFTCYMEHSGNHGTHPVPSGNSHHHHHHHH

[5] = target: MICA*004 on HCC1534 cells (human, UniProt Q29983 24-383); assay: cell-based or functional assay; remark: listed apart in the source
[6] = target: T7, MICA*008 on MEL-JUSO cells (human, UniProt Q29983 24-317); assay: cell-based or functional assay
T7 chain: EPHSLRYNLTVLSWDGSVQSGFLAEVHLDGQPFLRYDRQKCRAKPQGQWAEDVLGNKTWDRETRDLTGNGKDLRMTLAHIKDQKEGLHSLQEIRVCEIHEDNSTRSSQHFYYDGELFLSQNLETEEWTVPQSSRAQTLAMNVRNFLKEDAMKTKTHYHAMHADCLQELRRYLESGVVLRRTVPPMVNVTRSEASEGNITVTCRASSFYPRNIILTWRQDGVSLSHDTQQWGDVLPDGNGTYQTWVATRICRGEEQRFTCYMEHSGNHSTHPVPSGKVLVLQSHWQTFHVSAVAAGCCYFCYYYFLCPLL
For % Inhibition in this document: test concentration or dose not given here.

Binder | % Inhibition [1] | % Inhibition [2] | % Inhibition [3] | Kd (huMICA*008 alpha 3-his) | Kd (huMICB*005 alpha 3-his) | Kd (huMICA*004 alpha 3-his) | Kd (huMICA*002 alpha 3-his) | Kd [4] | % max inhibition of shedding [5] | EC50 of shedding inhibition [5] | % max inhibition of shedding [6]
15F11v2 (antibody, IgG1, V domains shown, humanized variant of 15F11) VH: EIQLVQSGAEVKKPGASVKVSCKPSGYAFTSNNIYWVRQAPGQGLEWIGYIDPYIGRIIYNQQFKDRATLTVDKSTSTAYLELSSLRSEDTAVYYCSRSGERSNFDYWGQGTLVTVSS VL: EIVLTQSPATLSLSPGERATLSCSASSSISSNYLHWYQQKPGQAPRLLIYRTSNLASGIPARFSGSGSGTDFTLTISSLEPEDFAVYYCQQGGSLPLTFGQGTKVEIK | 35% | 43% | 62% | 3.17 nM | 6.71 nM | 2.74 nM | 5.05 nM |  |  |  | 
15F11v6 (antibody, IgG1, V domains shown, humanized variant of 15F11) VH: EIQLVQSGAEVKKPGSSVKVSCKPSGYAFTSNNIYWVRQAPGQGLEWIGYIDPYIGRIIYNQQFKDRATLTVDKSTSTAYMELSSLRSEDTAVYYCSRSGERSNFDYWGQGTLVTVSS VL: EIVLTQSPATLSLSPGERATLSCSASSSISSNYLHWYQQKPGQSPRLLIYRTSNLASGVPARFSGSGSGTDYTLTISSLEPEDFAVYYCQQGGSLPLTFGQGTKVEIK | 59% | -14% | -8% | 2.94 nM | 6.62 nM | 2.91 nM | 5.47 nM |  |  |  | 
15F11v1 (antibody, IgG1, V domains shown, humanized variant of 15F11) VH: EVQLVQSGAEVKKPGASVKVSCKASGYAFTSNNIYWVRQAPGQGLEWIGYIDPYIGRIIYNQQFKDRVTITADTSTSTAYLELSSLRSEDTAVYYCSRSGERSNFDYWGQGTLVTVSS VL: EIVLTQSPATLSLSPGERATLSCSASSSISSNYLHWYQQKPGQAPRLLIYRTSNLASGIPARFSGSGSGTDFTLTISSLEPEDFAVYYCQQGGSLPLTFGQGTKVEIK | 43% | 3% | 4% | 6.52 nM | 16.1 nM | 5.96 nM | 12.8 nM |  |  |  | 
15F11v4 (antibody, IgG1, V domains shown, humanized variant of 15F11) VH: EIQLVQSGAEVKKPGASVKVSCKPSGYAFTSNNIYWVRQAPGQGLEWIGYIDPYIGRIIYNQQFKDRATLTVDKSTSTAYLELSSLRSEDTAVYYCSRSGERSNFDYWGQGTLVTVSS VL: EIVLTQSPATLSLSPGERATLSCSASSSISSNYLHWYQQKPGQSPRLLIYRTSNLASGVPARFSGSGSGTDYTLTISSLEPEDFAVYYCQQGGSLPLTFGQGTKVEIK | 44% | -34% | -19% | 2.58 nM | 5.72 nM | 2.58 nM | 4.75 nM |  |  |  | 
15F11v3 (antibody, IgG1, V domains shown, humanized variant of 15F11) VH: EVQLVQSGAEVKKPGASVKVSCKASGYAFTSNNIYWVRQAPGQGLEWIGYIDPYIGRIIYNQQFKDRVTITADTSTSTAYLELSSLRSEDTAVYYCSRSGERSNFDYWGQGTLVTVSS VL: EIVLTQSPATLSLSPGERATLSCSASSSISSNYLHWYQQKPGQSPRLLIYRTSNLASGVPARFSGSGSGTDYTLTISSLEPEDFAVYYCQQGGSLPLTFGQGTKVEIK | -49% | 39% | 50% | 5.56 nM | 14.1 nM | 5.7 nM | 12.7 nM |  |  |  | 
15F11v5 (antibody, IgG1, V domains shown, humanized variant of 15F11) VH: EIQLVQSGAEVKKPGSSVKVSCKPSGYAFTSNNIYWVRQAPGQGLEWIGYIDPYIGRIIYNQQFKDRATLTVDKSTSTAYMELSSLRSEDTAVYYCSRSGERSNFDYWGQGTLVTVSS VL: EIVLTQSPATLSLSPGERATLSCSASSSISSNYLHWYQQKPGQAPRLLIYRTSNLASGIPARFSGSGSGTDFTLTISSLEPEDFAVYYCQQGGSLPLTFGQGTKVEIK | -35% | 46% | 62% | 3.2 nM | 7.8 nM | 3.11 nM | 6.05 nM |  |  |  | 
13A9v6 (antibody, IgG1, V domains shown, humanized variant of 13A9) VH: EVQLVQSGAEVKKPGSSVKVSCKASGYAFTNYLIEWVRQAPGQGLEWIGAINPGSGATNYNEKFKDRATLTADKSTNTAYMELSSLRSEDTAVYFCARFLGNYFDNWGQGTLVTVSS VL: DIQMTQSPSSLSASVGDRVTITCRASGNIHSYLAWYQQKPGKSPKLLVYYAETLADGVPSRFSGSGSGTDYTLTISSLQPEDFATYFCQQFWTTPYTFGQGTKVEIK | 6% | 16% | 8% | 2.8 nM | 2.45 nM | 3.77 nM | 3.94 nM |  |  |  | 

Now from value to binder:

% Inhibition [1] | % Inhibition [2] | % Inhibition [3] | Kd (huMICA*008 alpha 3-his) | Kd (huMICB*005 alpha 3-his) | Kd (huMICA*004 alpha 3-his) | Kd (huMICA*002 alpha 3-his) | Kd [4] | % max inhibition of shedding [5] | EC50 of shedding inhibition [5] | % max inhibition of shedding [6] | Binder
58% | 34% | 31% | 3.72 nM | 2.96 nM | 3.95 nM | 1.49 nM |  |  |  |  | 6E1.1.12 (antibody, V domains shown, mouse variable domains) VH: QGQMQQSGAELVKPGASVKLSCKTSGFTFSDNYISWLKQKPGQSLEWIAWIYAGTGGSSYNQKFRDKAQLTVDTSSRTAYMQLSSLTTEDSAIYYCARHDYYGTSGAWFAYWGRGTLVTVSA VL: DVLMTQTPLSLPVSLGDQASISCRSSQHIVHSNENTYLEWYLQKPGQSPKLLIYKVSNRFSGVPDRFSGSGSGTDFTLKISRVEAEDLGVYYCFQGSHVPWTFGGGTKVEIK
63% | 9% | 4% | 3.68 nM | 3.17 nM | 5.52 nM | 4.27 nM |  |  |  |  | 13A9v5 (antibody, IgG1, V domains shown, humanized variant of 13A9) VH: EVQLVQSGAEVKKPGSSVKVSCKASGYAFTNYLIEWVRQAPGQGLEWIGAINPGSGATNYNEKFKDRATLTADKSTNTAYMELSSLRSEDTAVYFCARFLGNYFDNWGQGTLVTVSS VL: DIQMTQSPSSLSASVGDRVTITCRASGNIHSYLAWYQQKPGKAPKLLIYYAETLADGVPSRFSGSGSGTDFTLTISSLQPEDFATYYCQQFWTTPYTFGQGTKVEIK
 |  |  |  |  |  |  | 45 nM | 24% | 50 µg/mL | < 10% | 3C9.10 (antibody, V domains shown, Mouse hybridoma antibody; constant regions differ by assay (hybridoma mouse IgG, recombinant human IgG1 or mouse IgG2a)) VH: QVQLKESGPGLVAPSQSLSITCTVSGFSLTGSGVNWVRQPPGKGLEWLGMIWGDGNTDYNSALKSRLSISKDNSKSQIFLKMNSLQTDDTARYYCARGAYYGKRWYFDVWGAGTTVTVSS VL: DIQMTQTTSSLSASLGDRVTISCSASQGISNYLNWYQQKPDGTVKLLIYYTSSLHSGVPSRFSGSGSGTDYSLTISNLEPEDIATYYCQQYSKLPPTFGGGTKVEIK
 |  |  |  |  |  |  | 11 nM | 44% | 3.18 µg/mL | < 10% | 9C9.5.6 (antibody, V domains shown, Mouse hybridoma antibody; constant regions differ by assay) VH: QVQLKESGPGLVAPSQSLSITCTVSGFSLNGQGVNWVRQPPGKGLEWLGMIWGDGSTDYNSALKSRLSISKDNSRSQVFLKMNSLQTDDTARYYCARGAHYGKRWYFDVWGAGTTVTVSS VL: DIQMTQTTSSLSASLGDRVTISCSASQNINNYLNWYQQKPHGTVKLLIYYTSSLPSGVPSRFSGSGSGTDYSLTISNLEPEDIASYYCQQYSKLPPTFGGGTKVEIK
